Laboratory results from patent US20210130455A1 (KEIO UNIVERSITY, published 2021).

T1: mouse AQP3 in cell lysate of HEK293T cells overexpressing mouse AQP3 and a myc-biotinylated tag (mouse, UniProt Q8R2N1 1-292, biotinylated tag (site not given))
T1 construct: also called AQP3 (cell lysate); not shown: myc-biotinylated tag
T1 sequence (looked up): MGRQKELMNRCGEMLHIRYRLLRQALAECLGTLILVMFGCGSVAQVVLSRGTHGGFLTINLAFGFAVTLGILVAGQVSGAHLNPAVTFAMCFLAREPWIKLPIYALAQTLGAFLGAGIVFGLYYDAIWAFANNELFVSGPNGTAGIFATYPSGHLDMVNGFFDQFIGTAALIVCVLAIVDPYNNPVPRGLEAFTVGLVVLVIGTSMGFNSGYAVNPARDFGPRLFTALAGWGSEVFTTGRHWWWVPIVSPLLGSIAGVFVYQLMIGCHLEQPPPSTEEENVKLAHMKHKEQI

T2: peptide used for immunization (SEQ ID NO:1), ATYPSGHLDM (human and mouse (identical sequence))
T2 construct: Synthetic peptide; also called immunogen peptide; synthetic peptide
T2 peptide: ATYPSGHLDM

T3: human AQP3 on the cell surface (HaCaT cells, A431 cells, HEK293 cells stably overexpressing human AQP3) (human, UniProt Q92482 1-292)
T3 construct: whole, on cells; Membrane water channel; also called human aquaporin 3
T3 sequence (looked up): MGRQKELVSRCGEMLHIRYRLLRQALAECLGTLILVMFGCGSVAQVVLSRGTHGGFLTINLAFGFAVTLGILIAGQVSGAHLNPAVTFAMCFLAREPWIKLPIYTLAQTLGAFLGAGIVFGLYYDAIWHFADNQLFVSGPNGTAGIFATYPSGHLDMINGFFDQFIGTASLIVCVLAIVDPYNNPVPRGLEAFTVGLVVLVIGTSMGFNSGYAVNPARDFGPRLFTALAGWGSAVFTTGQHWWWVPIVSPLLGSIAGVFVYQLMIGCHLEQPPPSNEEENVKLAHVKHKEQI

T4: mouse AQP3 on the cell surface (PAM212 cells, mouse macrophage cells, HEK293 cells stably overexpressing … (mouse, UniProt Q8R2N1 1-292))
T4 construct: whole, on cells; Membrane water channel; also called mouse aquaporin 3
T4 sequence (looked up): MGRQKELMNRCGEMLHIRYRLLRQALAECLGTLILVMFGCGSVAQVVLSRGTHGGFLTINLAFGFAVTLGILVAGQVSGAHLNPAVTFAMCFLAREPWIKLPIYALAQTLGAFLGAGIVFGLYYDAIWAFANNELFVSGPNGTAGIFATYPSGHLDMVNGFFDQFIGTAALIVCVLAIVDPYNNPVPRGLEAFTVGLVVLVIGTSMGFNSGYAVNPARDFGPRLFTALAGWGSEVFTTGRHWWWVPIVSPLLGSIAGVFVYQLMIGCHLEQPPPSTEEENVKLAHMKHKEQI


Assays:
[1] = target: T1, mouse AQP3 in cell lysate of HEK293T …; experiment: ELISA on lysate of HEK293T cells overexpressing mouse AQP3 and a myc-biotinylated tag
Description: Cell lysate from HEK293T cells overexpressing mouse AQP3 and a myc-biotinylated tag was used in an ELISA assay to measure the binding of antibodies A, B, C, D, E, F, G, H, J, and K to AQP3. Cell lysate from HEK293T cells overexpressing the myc-biotinylated tag but not AQP3 was used as control.

[2] = target: T2, peptide used for immunization (SEQ ID …); experiment: ELISA on the immunogen peptide SEQ ID NO:1
Description: Binding of antibodies A, B, C, D, E, F, G, H, J, and K to the peptide used for immunization (SEQ ID NO:1) was tested in an ELISA assay. […] Thus, antibodies A, D, and F may therefore bind to AQP3 at a different epitope.

[3] = target: T3, human AQP3 on the cell surface (HaCaT …); experiment: fluorescence of a labelled secondary antibody on HaCaT cells; antibody at 10 µg/mL
Description: (§1) PAM212 and macrophage cells were reacted with each anti AQP3 antibody (0.1, 1, or 10 μg/mL) at 4° C. for 1 hour. After washing the cells, a fluorescent-labeled anti mouse secondary antibody was added and the reaction was allowed to occur additionally for 1 hour (4° C.). By measuring the fluorescence intensity, the binding property of each anti AQP3 antibody to cells was obtained.
The assay was also performed using HaCaT cells and antibodies A, B, C, D, E, F, G, H, and J at a concentration of 10 μg/mL. Binding of antibodies C, D, E, H, and J to HaCaT cells was statistically significant. The results obtained by performing a FACS assay using HaCaT, which are human epithelial cells, and antibody G, antibody H, or antibody J are shown in FIG. 6A-6C, respectively. HaCaT cells were treated with Cell Dissociation Buffer for 30 minutes at 37° C., and then dislodged and collected. Then, the cells were reacted with 10 μg/mL anti AQP3 antibody at 4° C. for 1 hour. After washing the cells, a fluorescent-labeled anti mouse secondary antibody was added and the reaction was allowed to occur additionally for 1 hour (4° C.). Then, by using a flow cytometer, fluorescence intensity was measured (FIG. 6A to FIG. 6C). FIG. 6A represents the result of a case in which antibody G was used, FIG. 6B represents the result of a case in which antibody H was used, and FIG. 6C represents the result of a case in which antibody J was used. […] The histogram expressed with bold line represents a case in which the anti AQP3 antibody was used while the histogram expressed with thin gray line represents a case as a control in which the anti AQP3 antibody was not used (addition of non-specific IgG). […] Ratio (%) of the cells included in this range (=cells showing positive staining by anti AQP3 antibody) is also shown in the drawing.

[4] = target: T4, mouse AQP3 on the cell surface (PAM212 …); experiment: fluorescence of a labelled secondary antibody on PAM212 cells; antibody at 10 µg/mL
Description: as §1
The assay was also performed using PAM212 cells and antibodies A, B, C, D, E, F, G, H, and J at a concentration of 10 μg/mL. Binding of antibodies C, D, E, G, and J to PAM212 cells was statistically significant.

[5] = target: T4, mouse AQP3 on the cell surface (PAM212 …); experiment: FACS on HEK293 cells stably overexpressing mouse AQP3; antibody at 10 µg/mL
Description: A FACS assay was also performed using HEK293 cells stably overexpressing mouse AQP3. Cells were incubated with antibody E, H, J, or negative control IgG at a concentration of 10 μg/mL for one hour and then sorted by FACS. Separately, HEK293 cells stably overexpressing human AQP3 were incubated with antibody E at a concentration of 10 μg/mL for one hour and then sorted by FACS.

[6] = target: T3, human AQP3 on the cell surface (HaCaT …); experiment: flow cytometry on HaCaT cells; antibody at 10 µg/mL
Description: The assay was also performed using HaCaT cells and antibodies A, B, C, D, E, F, G, H, and J at a concentration of 10 μg/mL. Binding of antibodies C, D, E, H, and J to HaCaT cells was statistically significant. The results obtained by performing a FACS assay using HaCaT, which are human epithelial cells, and antibody G, antibody H, or antibody J are shown in FIG. 6A-6C, respectively. HaCaT cells were treated with Cell Dissociation Buffer for 30 minutes at 37° C., and then dislodged and collected. Then, the cells were reacted with 10 μg/mL anti AQP3 antibody at 4° C. for 1 hour. After washing the cells, a fluorescent-labeled anti mouse secondary antibody was added and the reaction was allowed to occur additionally for 1 hour (4° C.). Then, by using a flow cytometer, fluorescence intensity was measured (FIG. 6A to FIG. 6C). FIG. 6A represents the result of a case in which antibody G was used, FIG. 6B represents the result of a case in which antibody H was used, and FIG. 6C represents the result of a case in which antibody J was used. […] The histogram expressed with bold line represents a case in which the anti AQP3 antibody was used while the histogram expressed with thin gray line represents a case as a control in which the anti AQP3 antibody was not used (addition of non-specific IgG). […]

[7] = target: T4, mouse AQP3 on the cell surface (PAM212 …); experiment: fluorescence of a labelled secondary antibody on mouse macrophage cells; antibody at 0.1, 1 and 10 µg/mL
Description: as §1
The testing was also carried out using solvent (Veh) or a non-specific IgG (IgG) controls. In FIG. 4, the vertical axis represents fluorescence intensity, and the mean fluorescence intensity of each sample is represented by bar height together with standard error.

Binder | binding result [1] | binding result [2] | binding result [3] | binding result [4] | binding result [5] | binding result [6] | binding result [7]
antibody K (antibody, mouse IgG2a, kappa, V domains shown, also called anti AQP3 mAb K) VH: QVQLKQSGAELVRPGTSVKVSCKASGYAFTNYLIEWVKQRPGQGLEWIGVINPGSGGTNYNEKFKGKATLTADKSSSTAYMQLSSLTSEDSAVYFCARWGFYYAMDYWGQGTSVTVSS VL: DIVMTQSPSSLSASLGERVSLTCRASQEISGYLSWLQQKPDGTIKRLIYAASTLDSGVPKRFSGSRSGSDYSLTISSLESEDFADYYCLQYASYPLTFGAGTKLEIKR | binds | binds |  |  |  |  | 
antibody E (antibody, mouse IgG2a, kappa, V domains shown, also called anti AQP3 mAb E) VH: EVKLLESGAELVRPGASVTLSCKASGYTFTDYEMHWVKQTPVHGLEWIGGIDPESGGTGYNQKFKGKAILTADKSSSTAYMELRSLTSEDSAVYFCTRSGYYGSPLLDYWGQGTTLTVSS VL: QIVLSQSPAIMSASLGERVTMTCTASSSVSSSYLHWYQQKPGSSPKLWIYSTSNLASGVPARFSGSGSGTSYSLTISSMEAEDAATYYCHQYHRSPPTFGAGTKLEIKR | binds | binds | binds | binds |  |  | 
antibody D (antibody, mouse IgG2a, kappa, V domains shown, also called anti AQP3 mAb D) VH: EVQLQQSGAELVRPGASVTLSCKASGYTFTDYEMHWVQQTPVHGLEWIGGIDPETGGTGYNQKFKGKAILTADKSSSTAYMELRSLTSEDSAVYFCTRHGSYAMDYWGQGTSVTVSS VL: DIVMTQSPKFMSTSVGDRVSITCKASQDVSTAVAWYQQKPGQSPKLLIYWASTRHTGVPDRFTGSGSGTDYTLTISSVQAEDLALYYCQQHYSTPPTFGGGTRLEIKR | binds |  | binds | binds |  |  | 
antibody A (antibody, mouse IgG2a, kappa, V domains shown, also called anti AQP3 mAb A) VH: QVQLQQPGAELVRPGASVTLSCKASGYTFTDYEMHWVKQTPVHGLEWIGGVDPETGGTGYNQKFRGKAILTADKSSSTAYMELRSLTSEDSAVYYCARHGGSFYAMDYWGQGTSVTVSS VL: DIVMTQSPKFMSTSVGDRVSITCKASQDVSTAVAWYQQKPGQSPKLLIYWASTRHTGVPDRFTGSGSGTDYTLTISSVQAEDLALYYCQQHYSTPPTFGGGTKLELKR | binds |  |  |  |  |  | 
antibody B (antibody, mouse IgG2a, kappa, V domains shown, also called anti AQP3 mAb B) VH: EVQLVESGGDLVKPGGSLKLSCAASGFTFSSYGMSWVRQTPDKRLEWVATISRGSIYTYYPDSVKGRFTISRDNAKNTLYLQMSSLKSEDTAMYYCARLSLYDYDGARYTMDYWGQGTSVTVSS VL: DIVMTQSPKFMSTSVGDRVSITCKASQDVGTAVAWYQQKPGQSPKLLIYWASTRHTGVPDRFTGSGSGTDFTLTISNVQSEDLADYFCQQYSSYHTFGAGTKLELKR | binds | binds |  |  |  |  | 

Results, then the binder that gave them:

binding result [1] | binding result [2] | binding result [3] | binding result [4] | binding result [5] | binding result [6] | binding result [7] | Binder
binds | binds | binds |  | binds |  |  | antibody H (antibody, mouse IgG2a, kappa, V domains shown, also called anti AQP3 mAb H) VH: EVKLVESGGDLVKPGGSLKLSCAASGFTFSSYGMSWVRQTPDKRLEWVATISRRSIYTYYPDSVQGRFTISRDNAKNTLYLQMSSLKSEDTAMYYCARLSLYDYDGARYTMDYWGQGTSVTVSS VL: DIKMTQSPKFMSTSVGDRVSITCKASQDVGTAVAWYQQKPGQSPKLLIYWASTRHTGVPDRFTGSGSGTDFTLTISNVQSEDLADYFCQQYSSYHTFGAGTKLEIKR
binds | binds |  | binds |  | binds |  | antibody G (antibody, mouse IgG2a, kappa, V domains shown, also called anti AQP3 mAb G) VH: QVQLKQSGAELVRPGASVTLSCKASGYTFTDYEMHWVKQTPVHGLEWIGGIDPETGGTAYNQKFKGKAILTADKSSSTAYMELRSLTSEDSAVYYCTRWGAITSFVALRGFAYWGQGTLVTVSS VL: DIQMTQSPSSLSVSAGEKVTMSCKSSQSLLNSGNQKNYLAWYQQKPGQPPKLLIYGASTRESGVPDRFTGSGSGTDFTLTISSVQAEDLAVYYCQNDHSYPPTFGAGTKLELKR
binds | binds | binds | binds |  |  |  | antibody C (antibody, mouse IgG2a, kappa, V domains shown, also called anti AQP3 mAb C) VH: QVQLKQSGAELARPGASVKLSCKASGYNFKSYGISWVKQRTGQGLEWIGEIYPGSGNTYYNEKLKGKATLTADKSSSTAYMELRSLTSEDSAVYFCARTYGYDSFPWFAYWGQGTLVTVSS VL: DIVMTQAAPSVPVTPGESVSISCRSSKSLLHSNGNTYLYWFLQRPGQSPQLLIYRVSNLASGVPDRFSGSGSGTAFTLRISRVEAEDEGVYYCMQHLEYPFTFGAGTKLEIKR
binds | binds | binds |  |  |  | binds | antibody J (antibody, mouse IgG2a, kappa, V domains shown, also called anti AQP3 mAb J; Ab) VH: QVHLQQSGTELVKPGASVKLSCEASGYTFTSYWMHWVKQRPGQGLEWIGNINPSNGGTNYNEKFKSKATLTVDKSSSTAYMQLSSLTSEDSAVYYCARGGIYYGNYDYYAMDYWGQGTSVTVSS VL: DIVMTQAAPSVPVTPGESVSISCRSSKSLLHSNGNTYLYWFLQRPGQSPQLLIYRVSNLASGVPDRFSGSGSGTAFTLRISRVEAEDVGVYYCMQHLEYPFTFGGGTKLEIKR
binds |  |  |  |  |  |  | antibody F (antibody, mouse IgG2a, kappa, V domains shown, also called anti AQP3 mAb F) VH: QVQLKESGPELVKPGASVKISCKASGYTFTDYYINWVKQRPGQGLEWIGWIFPGSGSTYYNEKFKGKATLTVDKSSSTAYMLLSSLTSEDSAVYFCADYGSSYRYFDVWGAGTTVTVSS VL: DIVMTQSPAILSASPGEKVTMTCRASSSVSYMHWYQQKPGSSPKPWIYATSYLASGVPARFSGSGSGTSYSLTIGRVEAEDAATYYCQQWSSNPLTFGAGTKLELKR
